From the RNAGym collection of RNA variant scans (doi:10.1093/nar/gkz1192)

B1: CPEB3 Ribozyme (parent)
chain: UAACAGGGGGCCACAGCAGAAGCGUUCACGUCGCAGCCCCUGUCAGAUUCUGGUGAAUCUGCGAAUUCUGCUGUAUAUCUC

Variants of: B1
Assay: self-cleavage, relative activity (ratio to wild type); higher = more cleavage; in vitro, sequencing
Procedure, shortened: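 CPEB3 self-cleaving ribozyme mutant libraries were made by rounds of error-prone PCR, barcoded, and transcribed in vitro with T7 RNA polymerase for 5 hours at 37°C. Cleavage occurred during transcription and a 15 min DNase I step before EDTA stop. RNAs were reverse transcribed with template switching and Illumina-sequenced, with DNA sequencing mapping barcodes to variants. Relative activity is the variant's cleaved/total read fraction divided by wild type's (minimum 5 reads), averaged across three batches.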

| Variant | self-cleavage |
| --- | --- |
| UAACAGGGGGCCCCAGCAGAAGCGUUCACGUCGCAGCCCCCGUCAGAUUCUGGUGAAUCUGCGAAUUCUGCUGUAUAUCUC [A13C U41C] | 1.08 |
| UAACAGGGGGCCCCAGCAGAAGCGUUCACGUCGCAGCCCCUGCCAGAUUCUGGUGAAUCUGCGAAUUCUGCUGUAUAUCUC [A13C U43C] | 0.62 |
| UAACAGGGGGCCCCAGCAGAAGCGUUCACGUCGCAGCCCCUGUCAGACUCUGGUGAAUCUGCGAAUUCUGCUGUAUAUCUC [A13C U48C] | 0.68 |
| UAACAGGGGGCCCCAGCAGAAGCGUUCACGUCGCAGCCCCUGUCAGAUCCUGGUGAAUCUGCGAAUUCUGCUGUAUAUCUC [A13C U49C] | 0.42 |
| UAACAGGGGGCCCCAGCAGAAGCGUUCACGUCGCAGCCCCUGUCAGAUUCAGGUGAAUCUGCGAAUUCUGCUGUAUAUCUC [A13C U51A] | 1.01 |
| UAACAGGGGGCCCCAGCAGAAGCGUUCACGUCGCAGCCCCUGUCAGAUUCCGGUGAAUCUGCGAAUUCUGCUGUAUAUCUC [A13C U51C] | 1.11 |
| UAACAGGGGGCCCCAGCAGAAGCGUUCACGUCGCAGCCCCUGUCAGAUUCGGGUGAAUCUGCGAAUUCUGCUGUAUAUCUC [A13C U51G] | 0.88 |
| UAACAGGGGGCCCCAGCAGAAGCGUUCACGUCGCAGCCCCUGUCAGAUUCUGGCGAAUCUGCGAAUUCUGCUGUAUAUCUC [A13C U54C] | 1.09 |
| UAACAGGGGGCCCCAGCAGAAGCGUUCACGUCGCAGCCCCUGUCAGAUUCUGGGGAAUCUGCGAAUUCUGCUGUAUAUCUC [A13C U54G] | 0.71 |
| UAACAGGGGGCCCCAGCAGAAGCGUUCACGUCGCAGCCCCUGUCAGAUUCUGGUGAACCUGCGAAUUCUGCUGUAUAUCUC [A13C U58C] | 0.45 |
| UAACAGGGGGCCCCAGCAGAAGCGUUCACGUCGCAGCCCCUGUCAGAUUCUGGUGAAUCAGCGAAUUCUGCUGUAUAUCUC [A13C U60A] | 0.52 |
| UAACAGGGGGCCCCAGCAGAAGCGUUCACGUCGCAGCCCCUGUCAGAUUCUGGUGAAUCCGCGAAUUCUGCUGUAUAUCUC [A13C U60C] | 0.51 |
| UAACAGGGGGCCCCAGCAGAAGCGUUCACGUCGCAGCCCCUGUCAGAUUCUGGUGAAUCGGCGAAUUCUGCUGUAUAUCUC [A13C U60G] | 0.57 |
| UAACAGGGGGCCCCAGCAGAAGCGUUCACGUCGCAGCCCCUGUCAGAUUCUGGUGAAUCUGCGAACUCUGCUGUAUAUCUC [A13C U66C] | 0.33 |
| UAACAGGGGGCCCCAGCAGAAGCGUUCACGUCGCAGCCCCUGUCAGAUUCUGGUGAAUCUGCGAAUCCUGCUGUAUAUCUC [A13C U67C] | 0.19 |
| UAACAGGGGGCCCCAGCAGAAGCGUUCACGUCGCAGCCCCUGUCAGAUUCUGGUGAAUCUGCGAAUUCAGCUGUAUAUCUC [A13C U69A] | 0.31 |
| UAACAGGGGGCCCCAGCAGAAGCGUUCACGUCGCAGCCCCUGUCAGAUUCUGGUGAAUCUGCGAAUUCCGCUGUAUAUCUC [A13C U69C] | 0.52 |

| Variant | self-cleavage |
| --- | --- |
| UAACAGGGGGCCCCAGCAGAAGCGUUCACGUCGCAGCCCCUGUCAGAUUCUGGUGAAUCUGCGAAUUCUGCAGUAUAUCUC [A13C U72A] | 0.24 |
| UAACAGGGGGCCCCAGCAGAAGCGUUCACGUCGCAGCCCCUGUCAGAUUCUGGUGAAUCUGCGAAUUCUGCCGUAUAUCUC [A13C U72C] | 0.83 |
| UAACAGGGGGCCCCAGCAGAAGCGUUCACGUCGCAGCCCCUGUCAGAUUCUGGUGAAUCUGCGAAUUCUGCUGCAUAUCUC [A13C U74C] | 1.18 |
| UAACAGGGGGCCCCAGCAGAAGCGUUCACGUCGCAGCCCCUGUCAGAUUCUGGUGAAUCUGCGAAUUCUGCUGUAAAUCUC [A13C U76A] | 1.18 |
| UAACAGGGGGCCCCAGCAGAAGCGUUCACGUCGCAGCCCCUGUCAGAUUCUGGUGAAUCUGCGAAUUCUGCUGUACAUCUC [A13C U76C] | 0.75 |
| UAACAGGGGGCCCCAGCAGAAGCGUUCACGUCGCAGCCCCUGUCAGAUUCUGGUGAAUCUGCGAAUUCUGCUGUAUAACUC [A13C U78A] | 1 |
| UAACAGGGGGCCCCAGCAGAAGCGUUCACGUCGCAGCCCCUGUCAGAUUCUGGUGAAUCUGCGAAUUCUGCUGUAUACCUC [A13C U78C] | 1.02 |
| UAACAGGGGGCCCCAGCAGAAGCGUUCACGUCGCAGCCCCUGUCAGAUUCUGGUGAAUCUGCGAAUUCUGCUGUAUAUCAC [A13C U80A] | 0.92 |
| UAACAGGGGGCCCCAGCAGAAGCGUUCACGUCGCAGCCCCUGUCAGAUUCUGGUGAAUCUGCGAAUUCUGCUGUAUAUCCC [A13C U80C] | 1.14 |
| UAACAGGGGGCCGCAGCAGAAGCGUUCACGUCGCAGCCCCUGUCAGAUUCUGGUGAAUCUGCGAAUUCUGCUGUAUAUCUC [A13G] | 0.94 |
| UAACAGGGGGCCGCCGCAGAAGCGUUCACGUCGCAGCCCCUGUCAGAUUCUGGUGAAUCUGCGAAUUCUGCUGUAUAUCUC [A13G A15C] | 0.81 |
| UAACAGGGGGCCGCGGCAGAAGCGUUCACGUCGCAGCCCCUGUCAGAUUCUGGUGAAUCUGCGAAUUCUGCUGUAUAUCUC [A13G A15G] | 0.35 |
| UAACAGGGGGCCGCUGCAGAAGCGUUCACGUCGCAGCCCCUGUCAGAUUCUGGUGAAUCUGCGAAUUCUGCUGUAUAUCUC [A13G A15U] | 0.43 |
| UAACAGGGGGCCGCAGCGGAAGCGUUCACGUCGCAGCCCCUGUCAGAUUCUGGUGAAUCUGCGAAUUCUGCUGUAUAUCUC [A13G A18G] | 0.39 |
| UAACAGGGGGCCGCAGCUGAAGCGUUCACGUCGCAGCCCCUGUCAGAUUCUGGUGAAUCUGCGAAUUCUGCUGUAUAUCUC [A13G A18U] | 0.27 |
| UAACAGGGGGCCGCAGCAGCAGCGUUCACGUCGCAGCCCCUGUCAGAUUCUGGUGAAUCUGCGAAUUCUGCUGUAUAUCUC [A13G A20C] | 0.27 |
| UAACAGGGGGCCGCAGCAGGAGCGUUCACGUCGCAGCCCCUGUCAGAUUCUGGUGAAUCUGCGAAUUCUGCUGUAUAUCUC [A13G A20G] | 0.6 |
